{"source": "paper PMC12865031", "about": "“Mechanistic insights into PCBP1-driven unfolding of selected i-motif DNA at G1/S checkpoint”", "binders": {"B1": {"name": "hTeloC-iMfs (structured_DNA)", "DNA": "CCCTAACCCTAACCCTAACCCT"}, "B2": {"name": "BCL2-iMfs (structured_DNA)", "DNA": "CAGCCCCGCTCCCGCCCCCTTCCTCCCGCGCCCGCCCCT"}, "B3": {"name": "BCL2-G10TG12T (structured_DNA)", "DNA": "B2 DNA with G28T, G30T"}, "B4": {"name": "cMYC-iMfs-Br (structured_DNA)", "DNA": "AATCCCACCCCTCCCATCCCTTTTT"}, "B5": {"name": "C7T3-iMfs (structured_DNA)", "DNA": "CCCCCCCTTTCCCCCCCTTTCCCCCCCTTTCCCCCCC"}, "B6": {"name": "BCL2-Gall>T (structured_DNA)", "DNA": "CATCCCCTCTCCCTCCCCCTTCCTCCCTCTCCCTCCCCT"}, "B7": {"name": "cMYC-iMfs (structured_DNA)", "DNA": "AATCCCACCCCTCCCATCCCTT"}, "B8": {"name": "mutC (ssDNA)", "DNA": "TACACTCACACTCACACTCACACTCAA"}, "B9": {"name": "ILPR-iMfs (structured_DNA)", "DNA": "TGTCCCCACACCCCTGTCCCCACACCCCTGT"}}, "key": {"[1]": {"biological_target": "T1, PCBP1 (wild type) (UniProt Q15365 1-356)", "T1 sequence (Q15365 whole entry)": "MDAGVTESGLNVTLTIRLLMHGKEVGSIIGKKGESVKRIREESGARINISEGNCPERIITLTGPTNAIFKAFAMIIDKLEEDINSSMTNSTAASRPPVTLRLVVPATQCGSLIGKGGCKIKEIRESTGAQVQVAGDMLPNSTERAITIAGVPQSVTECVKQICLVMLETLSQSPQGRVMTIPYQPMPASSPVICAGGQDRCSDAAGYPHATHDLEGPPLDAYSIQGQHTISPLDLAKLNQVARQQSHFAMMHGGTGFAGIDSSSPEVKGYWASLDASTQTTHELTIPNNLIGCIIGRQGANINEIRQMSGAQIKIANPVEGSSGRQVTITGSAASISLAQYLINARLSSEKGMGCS", "assay": "EMSA; pH 6.4, i-motif; MST: 20 mM MES pH 6.4, phosphate pH 7.0 or Tris-Cl pH 8.0, 100 mM NaCl, 25 C; EMSA: 20 mM Bis-Tris pH 6.4 or Tris-HCl pH 8.0, 100 mM NaCl, 0.25 mg/mL BSA, 25 C; NMR/CD: 20 mM MES pH 6.4, 100 mM NaCl; footprinting 20 mM MES pH 6.4, 50 mM NaCl", "details": "protein: recombinant; tags: His tag (pET-His1a), removed by TEV; label: 5'-Cy5 (EMSA, MST); intramolecular i-motif at pH 6.4; unfolded at pH 7.0 and 8.0"}, "[2]": {"biological_target": "T1, PCBP1 (wild type)", "assay": "EMSA; pH 6.4, i-motif; two shifted bands; MST: 20 mM MES pH 6.4, phosphate pH 7.0 or Tris-Cl pH 8.0, 100 mM NaCl, 25 C; EMSA: 20 mM Bis-Tris pH 6.4 or Tris-HCl pH 8.0, 100 mM NaCl, 0.25 mg/mL BSA, 25 C; NMR/CD: 20 mM MES pH 6.4, 100 mM NaCl; footprinting 20 mM MES pH 6.4, 50 mM NaCl", "details": "protein: recombinant; tags: His tag (pET-His1a), removed by TEV; label: 5'-Cy5 (EMSA, MST); intramolecular i-motif with co-existing hairpin at pH 6.4; unfolded at pH 7.0 and 8.0"}, "[3]": {"biological_target": "T1, PCBP1 (wild type)", "assay": "CD titration; stronger blue-shift than wild-type BCL2; MST: 20 mM MES pH 6.4, phosphate pH 7.0 or Tris-Cl pH 8.0, 100 mM NaCl, 25 C; EMSA: 20 mM Bis-Tris pH 6.4 or Tris-HCl pH 8.0, 100 mM NaCl, 0.25 mg/mL BSA, 25 C; NMR/CD: 20 mM MES pH 6.4, 100 mM NaCl; footprinting 20 mM MES pH 6.4, 50 mM NaCl", "details": "protein: recombinant; tags: His tag (pET-His1a), removed by TEV; i-motif without hairpin"}, "[4]": {"biological_target": "T1, PCBP1 (wild type)", "assay": "bromine footprinting; pH 6.4; enhanced cleavage across all Cs; MST: 20 mM MES pH 6.4, phosphate pH 7.0 or Tris-Cl pH 8.0, 100 mM NaCl, 25 C; EMSA: 20 mM Bis-Tris pH 6.4 or Tris-HCl pH 8.0, 100 mM NaCl, 0.25 mg/mL BSA, 25 C; NMR/CD: 20 mM MES pH 6.4, 100 mM NaCl; footprinting 20 mM MES pH 6.4, 50 mM NaCl", "details": "protein: recombinant; tags: His tag (pET-His1a), removed by TEV; label: 3'-Cy5; intramolecular i-motif at pH 6.4"}, "[5]": {"biological_target": "T2, PCBP1 KH1+2;PCBP1 KH3 (Homo sapiens?;Homo sapiens?, UniProt Q15365;Q15365 1-169;269-356, |)", "T2 sequence (Q15365 1-169, chain 1 of 2)": "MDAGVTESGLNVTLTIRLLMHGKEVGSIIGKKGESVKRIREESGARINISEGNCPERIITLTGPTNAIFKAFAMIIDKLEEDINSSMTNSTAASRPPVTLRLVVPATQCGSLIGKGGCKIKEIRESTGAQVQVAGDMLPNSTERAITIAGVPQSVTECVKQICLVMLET", "T2 sequence (Q15365 269-356, chain 2 of 2)": "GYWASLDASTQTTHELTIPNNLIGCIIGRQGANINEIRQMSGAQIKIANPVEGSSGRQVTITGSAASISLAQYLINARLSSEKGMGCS", "assay": "bromine footprinting; pH 6.4; cleavage enhanced across all Cs; MST: 20 mM MES pH 6.4, phosphate pH 7.0 or Tris-Cl pH 8.0, 100 mM NaCl, 25 C; EMSA: 20 mM Bis-Tris pH 6.4 or Tris-HCl pH 8.0, 100 mM NaCl, 0.25 mg/mL BSA, 25 C; NMR/CD: 20 mM MES pH 6.4, 100 mM NaCl; footprinting 20 mM MES pH 6.4, 50 mM NaCl", "details": "protein: recombinant;recombinant, tags: His tag (pET-His1a), removed by TEV;His tag (pET-His1a), copies: 1;1, label: 3'-Cy5, intramolecular i-motif at pH 6.4"}, "[6]": {"biological_target": "T3, PCBP1 KH1+2 (UniProt Q15365 1-169)", "T3 sequence (Q15365 1-169)": "as the sequence (Q15365 1-169, chain 1 of 2) above", "assay": "bromine footprinting; pH 6.4; increased cleavage at C3-C5 and C12-C14; MST: 20 mM MES pH 6.4, phosphate pH 7.0 or Tris-Cl pH 8.0, 100 mM NaCl, 25 C; EMSA: 20 mM Bis-Tris pH 6.4 or Tris-HCl pH 8.0, 100 mM NaCl, 0.25 mg/mL BSA, 25 C; NMR/CD: 20 mM MES pH 6.4, 100 mM NaCl; footprinting 20 mM MES pH 6.4, 50 mM NaCl", "details": "protein: recombinant; tags: His tag (pET-His1a), removed by TEV; label: 3'-Cy5; intramolecular i-motif at pH 6.4"}, "[7]": {"biological_target": "T1, PCBP1 (wild type)", "assay": "MST; pH 6.4, i-motif; stronger than pH 8.0; MST: 20 mM MES pH 6.4, phosphate pH 7.0 or Tris-Cl pH 8.0, 100 mM NaCl, 25 C; EMSA: 20 mM Bis-Tris pH 6.4 or Tris-HCl pH 8.0, 100 mM NaCl, 0.25 mg/mL BSA, 25 C; NMR/CD: 20 mM MES pH 6.4, 100 mM NaCl; footprinting 20 mM MES pH 6.4, 50 mM NaCl", "details": "protein: recombinant; tags: His tag (pET-His1a), removed by TEV; label: 5'-Cy5 (MST); i-motif at pH 6.4 and 7.0; unfolded at pH 8.0"}, "[8]": {"biological_target": "T2, PCBP1 KH1+2;PCBP1 KH3", "assay": "MST; pH 6.4; affinity and selectivity for i-motif restored; MST: 20 mM MES pH 6.4, phosphate pH 7.0 or Tris-Cl pH 8.0, 100 mM NaCl, 25 C; EMSA: 20 mM Bis-Tris pH 6.4 or Tris-HCl pH 8.0, 100 mM NaCl, 0.25 mg/mL BSA, 25 C; NMR/CD: 20 mM MES pH 6.4, 100 mM NaCl; footprinting 20 mM MES pH 6.4, 50 mM NaCl", "details": "protein: recombinant;recombinant, tags: His tag (pET-His1a), removed by TEV;His tag (pET-His1a), copies: 1;1, label: 5'-Cy5 (EMSA, MST), intramolecular i-motif at pH 6.4, unfolded at pH 7.0 and 8.0"}, "[9]": {"biological_target": "T3, PCBP1 KH1+2", "assay": "MST; pH 6.4; no structural selectivity; MST: 20 mM MES pH 6.4, phosphate pH 7.0 or Tris-Cl pH 8.0, 100 mM NaCl, 25 C; EMSA: 20 mM Bis-Tris pH 6.4 or Tris-HCl pH 8.0, 100 mM NaCl, 0.25 mg/mL BSA, 25 C; NMR/CD: 20 mM MES pH 6.4, 100 mM NaCl; footprinting 20 mM MES pH 6.4, 50 mM NaCl", "details": "protein: recombinant; tags: His tag (pET-His1a), removed by TEV; label: 5'-Cy5 (EMSA, MST); intramolecular i-motif at pH 6.4; unfolded at pH 7.0 and 8.0"}, "[10]": {"biological_target": "T1, PCBP1 (wild type)", "assay": "EMSA; pH 6.4; MST: 20 mM MES pH 6.4, phosphate pH 7.0 or Tris-Cl pH 8.0, 100 mM NaCl, 25 C; EMSA: 20 mM Bis-Tris pH 6.4 or Tris-HCl pH 8.0, 100 mM NaCl, 0.25 mg/mL BSA, 25 C; NMR/CD: 20 mM MES pH 6.4, 100 mM NaCl; footprinting 20 mM MES pH 6.4, 50 mM NaCl", "details": "protein: recombinant; tags: His tag (pET-His1a), removed by TEV; label: 5'-Cy5 (EMSA); unfolded"}}, "note": "Residue numbers refer to the chain shown, from its start.", "data": [{"binder": "B1", "values": [{"measurement": "binding result", "setting": "[1]", "result": "binds"}]}, {"binder": "B2", "values": [{"measurement": "binding result", "setting": "[2]", "result": "binds"}]}, {"binder": "B3", "values": [{"measurement": "binding result", "setting": "[3]", "result": "binds"}]}, {"binder": "B4", "values": [{"measurement": "binding result", "setting": "[4]", "result": "binds"}, {"measurement": "binding result", "setting": "[5]", "result": "binds"}, {"measurement": "binding result", "setting": "[6]", "result": "binds"}]}, {"binder": "B5", "values": [{"measurement": "binding result", "setting": "[7]", "result": "binds"}]}, {"binder": "B6", "values": [{"measurement": "binding result", "setting": "[3]", "result": "binds"}]}, {"binder": "B7", "values": [{"measurement": "binding result", "setting": "[1]", "result": "binds"}, {"measurement": "binding result", "setting": "[8]", "result": "binds"}, {"measurement": "binding result", "setting": "[9]", "result": "binds"}]}, {"binder": "B8", "values": [{"measurement": "binding result", "setting": "[10]", "result": "no binding"}]}, {"binder": "B9", "values": [{"measurement": "binding result", "setting": "[1]", "result": "binds"}]}]}
